According to paper PMC5871717, “Transposase-DNA Complex Structures Reveal Mechanisms for Conjugative Transposition of Antibiotic Resistance” (Cell, 2018):
Where a chain is given by its changes, count along the chain named. In names and notes the source's numbering stands.

What was measured:
Int82N(R225K) = biological target: T1, Int82N(R225K) (Enterococcus faecalis, UniProt Q7BP35 82-397, R225K); assay: X-ray crystallography; 2 protein:1 DNA; […] (50 mM HEPES pH 7.5, 250 mM NaCl, 5 mM DTT, 10% glycerol), […]; details: protein: recombinant, tags: 6xHis-SUMO removed by SenP2, extra N-terminal S81, chain copies: 2, terminal T/T mismatch as printed
T1 sequence: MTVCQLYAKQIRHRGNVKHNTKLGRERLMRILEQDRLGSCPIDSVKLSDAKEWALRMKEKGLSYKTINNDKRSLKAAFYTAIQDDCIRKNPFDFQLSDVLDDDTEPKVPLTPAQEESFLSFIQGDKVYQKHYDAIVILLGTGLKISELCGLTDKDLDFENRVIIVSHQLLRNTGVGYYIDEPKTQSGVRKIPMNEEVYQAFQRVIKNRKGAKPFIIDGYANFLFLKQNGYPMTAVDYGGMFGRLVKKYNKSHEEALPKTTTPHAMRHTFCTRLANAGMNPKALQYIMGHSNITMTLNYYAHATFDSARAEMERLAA

Int82N [1] = biological target: T2, Int82N (Enterococcus faecalis, UniProt Q7BP35 82-397); assay: X-ray crystallography; wild-type catalytic residues; […] (50 mM HEPES pH 7.5, 250 mM NaCl, 5 mM DTT, 10% glycerol), […]; details: protein: recombinant; tags: 6xHis-SUMO removed by SenP2; extra N-terminal S81; chain copies: 2; label: 5'-32P in EMSA; none in crystals; 44 bp; terminal T/T mismatch as printed
T2 sequence: T1 sequence with K144R

390C = 390C (Enterococcus faecalis, UniProt Q7BP35 82-390); assay: EMSA; monomeric and higher oligomers; […] (50 mM HEPES pH 7.5, 250 mM NaCl, 5 mM DTT, 10% glycerol), […]; details: protein: recombinant; tags: 6xHis-SUMO removed by SenP2; label: 5'-32P in EMSA; none in crystals; 44 bp; terminal T/T mismatch as printed
381C = 381C (Enterococcus faecalis, UniProt Q7BP35 82-381); assay: as above; details: protein: recombinant; tags: 6xHis-SUMO removed by SenP2; label: 5'-32P in EMSA; none in crystals; 44 bp; terminal T/T mismatch as printed
Int82N [2] = biological target: T2, Int82N; assay: 2AP fluorescence; base-flipping readout; […] (50 mM HEPES pH 7.5, 250 mM NaCl, 5 mM DTT, 10% glycerol), […]; details: protein: recombinant; tags: 6xHis-SUMO removed by SenP2; extra N-terminal S81; chain copies: 2; label: 2AP; 44 nt strands; 2AP opposite C at one flipped base; terminal T/T mismatch
Int82N [3] = biological target: T2, Int82N; assay: EMSA; 2:1 complex; similar affinity to CI5; […] (50 mM HEPES pH 7.5, 250 mM NaCl, 5 mM DTT, 10% glycerol), […]; details: protein: recombinant; tags: 6xHis-SUMO removed by SenP2; extra N-terminal S81; chain copies: 2; 45 bp; terminal T/T mismatch as printed
[4] = biological target: T3, Int82N (HJ-bound tetramer) (Enterococcus faecalis, UniProt Q7BP35 82-397); assay: EMSA; 4:1 protein:HJ; […] (50 mM HEPES pH 7.5, 250 mM NaCl, 5 mM DTT, 10% glycerol), […]; details: protein: recombinant; tags: 6xHis-SUMO removed by SenP2; chain copies: 4; four-way junction of 4 strands
T3 sequence: T1 sequence with K144R

Int82N(Y379F) = biological target: T4, Int82N(Y379F) (Enterococcus faecalis, UniProt Q7BP35 82-397, Y379F); assay: X-ray crystallography; […] (50 mM HEPES pH 7.5, 250 mM NaCl, 5 mM DTT, 10% glycerol), […]; details: protein: recombinant; tags: 6xHis-SUMO removed by SenP2; 5' overhang 6 nt
T4 sequence: T1 sequence with K144R, Y298F

[5] = biological target: the molecule itself; assay: crystal structure; Int^82N (R225K or wild type) with 44 bp CI5 dsDNA at 2:1 molar ratio in Buffer C; vapor diffusion at 20°C; 2.8 Å
[6] = biological target: the molecule itself; assay: SEC; analytical size exclusion chromatography on Superdex 200 10/300, proteins without DNA

B1: CI5 (dsDNA)
DNA 1: TGCGATAACCTAAAATTTTATAGCAAAATTATATGGGATTTTAG
DNA 2: CTAAAATCCCATATAATTTTGCTATAAAATTTTAGGTTATCGCT
Question: Which results are given for B1?
Answer: binding result (Int82N(R225K); label: 5'-32P in EMSA, none in crystals, 44 bp): binds; binding result (Int82N [1]): binds; binding result (390C): binds; binding result (381C): binds

B2: CI5-F (dsDNA)
DNA 1: B1 DNA 1 with A20T, C24A
DNA 2: B1 DNA 2 with G21C, T25A
modifications: 2-aminopurine (written A) at position 24 of top and 25 of bottom strand
Question: With B2 as the binder, how does the binding signal (Int82N [2]) read?
Answer: Its binding signal is ~4.6 fold 2AP fluorescence increase.

B3: CI6a (dsDNA)
DNA 1: TGCGATAACCTAAAATTTTATTTTCAAAATTATATGGGATTTTAG
DNA 2: CTAAAATCCCATATAATTTTGAAAATAAAATTTTAGGTTATCGCT
Question: Does B3 bind (Int82N(R225K); 45 bp)?
Answer: Result: binds

Question: Does B3 bind (Int82N [3])?
Answer: Result: binds

B4: CI6b (dsDNA)
DNA 1: B3 DNA 1 with A20C, T21C, T22C, C25T
DNA 2: B3 DNA 2 with G21A, A24G, A25G, T26G
Question: Does B4 bind (Int82N(R225K); 45 bp)?
Answer: Result: binds

Question: Does B4 bind (Int82N [3])?
Answer: Result: binds

B5: HJ (EMSA) (structured_DNA)
DNA 1: AGTGAACAGCCCACAAAATTTTGAAAATAAAATTTTAGGTTATCGCTGGCTAGTCCATGC
DNA 2: GCATGGACTAGCCAGCGATAACCTAAAATTTTATTAATAAAATTATATGGGATTT
DNA 3: CCAAATTTTTTACCGGGTTTTGAATTCAAAATTTTGTGGGCTGTTCACT
DNA 4: AAATCCCATATAATTTTATTTTCAAAACCCGGTAAAAAATTTGG
Question: Does B5 bind [4]?
Answer: Result: binds

B6: IRR half-site (dsDNA)
DNA 1: ATTTTCAAAATTATGGGATTTTAG
DNA 2: CTAAAATCCCATATAATTTT
Question: Does B6 bind (Int82N(Y379F))?
Answer: Result: binds

B7: Int^82N(R225K), catalytic mutant of Tn1549 Int aa 82–397 (domain or fragment, Enterococcus faecalis)
chain: SMTVCQLYAKQIRHRGNVKHNTKLGRERLMRILEQDRLGSCPIDSVKLSDAKEWALRMKEKGLSYKTINNDKRSLKAAFYTAIQDDCIRKNPFDFQLSDVLDDDTEPKVPLTPAQEESFLSFIQGDKVYQKHYDAIVILLGTGLKISELCGLTDKDLDFENRVIIVSHQLLRNTGVGYYIDEPKTQSGVRKIPMNEEVYQAFQRVIKNRKGAKPFIIDGYANFLFLKQNGYPMTAVDYGGMFGRLVKKYNKSHEEALPKTTTPHAMRHTFCTRLANAGMNPKALQYIMGHSNITMTLNYYAHATFDSARAEMERLAA
notes: additional residue S81 left after SenP2 cleavage of the purification tags; Tn1549 integrase (Int), Enterococcus faecalis, GenBank AAF72368.1, aa 82-397, with R225K; Crystallised with CI5, CI6a and CI6b DNA; also called R225K Int^82N; not shown: His6, N-terminal, cleaved; SUMO, N-terminal, cleaved
Question: Does B7 bind [5]?
Answer: Result: binds

B8: Tn1549 Int variant lacking the AB domain (aa 82–397; Int^82N), wild type (domain or fragment, Enterococcus faecalis)
chain: B7 chain with K145R
notes: additional residue S81 left after SenP2 cleavage of the purification tags; Tn1549 integrase (Int), Enterococcus faecalis, GenBank AAF72368.1, aa 82-397 (CB and CAT domains, no AB domain); full length is aa 1-397; Codon-optimised synthetic gene in pETM28 (BamHI/XhoI); also called Int^82N(wt); Tn1549 integrase; not shown: His6, N-terminal, cleaved; SUMO, N-terminal, cleaved
Question: Which “stoichiometry N” value [6] does the source give for B8 here?
Answer: The value was 2.
